We go through 41 sequences from the nanobody polyreactivity screen of Harvey et al. (2022).

This data set can be described thus: yeast display, Sf9 membrane polyspecificity reagent, FACS + sequencing; frameworks hold sequencing errors. The gist of the method: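 Nanobodies came from a synthetic yeast display library in Saccharomyces cerevisiae BJ5465, induced with galactose for 36–48 hours and stained for 1 hour at 4 °C with 10% biotinylated, detergent-solubilized Sf9 membrane reagent. Cells were enriched on streptavidin microbeads and then FACS-sorted, with low and high (top ~1%) gates set on anti-HA fluorescence for expression and streptavidin fluorescence for reagent binding. Each polyreactivity label reflects the gate a clone came from. Genes were amplified by colony PCR, sequenced by MiSeq 2 × 250 and filtered by CDR length.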
Regarding “QVQLVESGGGLVQAGGSLRLSCAASGRIFTFYAMGWYRQAPGKERELVARISKRGGSTYYADSVKGRFTISRDYAKNTVYLQRNSLKPEDTAVYYCAKAYDPTTYDYWGQGTQVTVSS”, the “polyreactivity (PSR sort gate)” value is recorded as “high polyreactivity”.

Regarding “QVQLVESGGGLVQAGGSLRLSCAASGRIFTGNAMGWYRQAPGKERELVAAISRRGTRTYYADSVKGRFTISRDNAKNTVYLQMNSLKPEDTAVYYCATVLYKAYNDYGYWGQGTQVTVSS”, the “polyreactivity (PSR sort gate)” value was “high polyreactivity”. With “QVQLVESGGGLVQAGGSLRLSCAASGRIFTHNAMGGYRQAPGKERELVAAITIGGRTNYADSVKGRFTISRDNAKYTVYLQMNSLKPEDTAVYYCDRRYGTWNAYDYWGQGTLVTVSS”, the “polyreactivity (PSR sort gate)” value is reported as “low polyreactivity”.

With “QVQLVESGGGLVQAGGSLRLSCAASGRIFTHNAMGWYRQAPGKERELVAAITSGGRTTYADSVKGRFTISRDNAKNTVYLQRNSLKPEDTAVYYCNADTGLGSLDFDKRDYWGQGTQVTVSS”, the “polyreactivity (PSR sort gate)” value was “low polyreactivity”. As for “QVQLVESGGGLVQAGGSLRLSCAASGRIFTKYAMGWYRQAPGKERELVATISKRSGSTYYADSVKGRFTISRDNAKNTVYLQMNSLKPEDTAVYYCARTVGYRTLLESDSWGQGTQVTVSS”, the “polyreactivity (PSR sort gate)” value was “high polyreactivity”. “QVQLVESGGGLVQAGGSLRLSCAASGRIFTNYAMGWYRQAPGKERELVAAINWDGGSTYYADSVKGRFTISRDNAKNTVYLQMNSLKPVDTAVYYCAAQGGLSEYDYWGQGTQVTVSS”: the “polyreactivity (PSR sort gate)” value is listed as “low polyreactivity”. With “QVQLVESGGGLVQAGGSLRLSCAASGRIFTRNAMGWCRPAPGKERELVAAITYTGANTYYADSVKGRFTISRDNAKNTVYLQMNSLKPEDTAVYYCAADGRVKGWGQGTQVTVSS”, the “polyreactivity (PSR sort gate)” value is given as “high polyreactivity”. Take “QVQLVESGGGLVQAGGSLRLSCAASGRIFTRYAMGWSRQAPGKERELVAAISSGGSTYYADSVKGRYTISRDKAKNTVYLQMNSLKPEDTAVYYCAAGTWWWYKFNYWGQGTQVTVSS”: the “polyreactivity (PSR sort gate)” value is “high polyreactivity”. For “QVQLVESGGGLVQAGGSLRLSCAASGRIFTRYAMGWYCQAPGNDRELVAVIRDGSTYYADSVKGRFTISRDNGKNTVYLQMNSLKPEDTAVYYCRYDIWDWWSGAYDYWGQGTQVTVSS”, the “polyreactivity (PSR sort gate)” value is “low polyreactivity”.

Take “QVQLVESGGGLVQAGGSLRLSCAASGRIFTRYAMGWYRQAPGKARELVAAITSSGGRTYYADSVKGRFTISRDNAKNTVYLQMNSLKQEDTAVYYCATGYINSYYYWGQGTQVTVSS”: the “polyreactivity (PSR sort gate)” value is “high polyreactivity”. As to “QVQLVESGGGLVQAGGSLRLSCAASGRIFTRYTMGWYRQAPGKDRELVAAITRGGSTYYADSVKGRFTISRDNANNTVYLQMNSLKPEDTAVYYCATQVWGGRYNYWGQGTQVTVTS”, the “polyreactivity (PSR sort gate)” value is on record as “high polyreactivity”. On to “QVQLVESGGGLVQAGGSLRLSCAASGRIFTRYTMGWYRQAPGKERELVAAISSSDSSTYYADSVKGRFTISRDNAKNTVYLQMNSLKPEDTAVYYCNADRLFYEIYDYGAVRIGYDYWGQGTQVTVSS”, for which the “polyreactivity (PSR sort gate)” value is “low polyreactivity”. Take “QVQLVESGGGLVQAGGSLRLSCAASGRIFTSNAMGWYRQAPGKERELVAAISGSGGRTYYADSVKGRFTISRDNAKNTVYLQMNSLKPEDTAVYYCAVGTRVKYDYWGQGTQVTVSS”: the “polyreactivity (PSR sort gate)” value was “high polyreactivity”. As for “QVQLVESGGGLVQAGGSLRLSCAASGRIFTSNAMGWYRQAPGKERELVAAISSSSGSTYYADSVKGRFTISRDNAKNTVSLQMNSLKPEDTAVYYCAARTWRVSGTYKYDYWGQGTQVTVSS”, the “polyreactivity (PSR sort gate)” value is recorded as “low polyreactivity”. For “QVQLVESGGGLVQAGGSLRLSCAASGRIFTSNTMGWYRQAAGKEGELVAAITSSGGSMYYADSVKGRFTISRDNAKNTVYLQMNSLKPEDTAVYYCAADTIGYHYWYDYWGQGTQVTVSS” the value was “low polyreactivity”; for “QVQLVESGGGLVQAGGSLRLSCAASGRIFTTNAMGWYRQAPGKERELVAAITYSGGTTYYADSVKGRFTISRDNAKNTVYLQLNSLNPEDTAVYYCAADVKFSTPYDYWGQGSQVTVSS”, “low polyreactivity”. “QVQLVESGGGLVQAGGSLRLSCAASGRIFTTYAMGWYRQAPGKERELVATITTTDTRTYADSVKGRFTISRDNAKNTVYLQMNSLKPEDTAVYYCAKDRLNKGRYYRAASDYWGQGTQVTVSS”: the “polyreactivity (PSR sort gate)” value is given as “low polyreactivity”. For “QVQLVESGGGLVQAGGSLRLSCAASGRIFTVNAMGGYRQAPGKERELVAAITFSGANTYYADSVKGRFTISRDNAKNTVFLQMNSLKPEDTAVYYCAGDPPNGAEYYWGQGTQVTVSS” the value was “high polyreactivity”; for “QVQLVESGGGLVQAGGSLRLSCAASGRIFTVYAMGWYRQAPGKERELVAAISGRGGRTYYADSVKGRFTISRDNAKNTVYLQMNSLKPEDTAVYYCNADTLTLTRPDGDIHTVWMDYWGQGTQVTVSS”, “low polyreactivity”; for “QVQLVESGGGLVQAGGSLRLSCAASGRIFTVYAMGWYRQAPGKERELVAAISSSGGSTYYADSLKGRFTISRDNAKNSVFLQMNSLKPEDTAVYYCAKPRTYDKDKYDYWGQCTQVTVSS”, “high polyreactivity”. On to “QVQLVESGGGLVQAGGSLRLSCAASGRIFTVYAMGWYRQAPGKERELVAAITRGGGGTYYADSVKGRFTISRDNAKNTVYFQMNSLKPEETAVYYCAAAYRGDRWSYRVDYWGQGTQVTVSS”, for which the “polyreactivity (PSR sort gate)” value is “high polyreactivity”. For the sequence “QVQLVESGGGLVQAGGSLRLSCAASGRIFTWYAKGWYRQAPGKERELVAAISWSGGRTYYADSVKGRFTISRDNAKNTVYLQMNSLKPEDTAVYYCNAVPSVRWRYDYWGQGTQVTVSS”, the “polyreactivity (PSR sort gate)” value is “high polyreactivity”. Then “QVQLVESGGGLVQAGGSLRLSCAASGRIFTYDAMGWYRPAPGKERELLATITSGGSTNYADSVKGRFTISRDNAMNTVYLQMNSLKPEDTAVDYCATRKYRVPRSYYWGQGTQVTVSS”, with “high polyreactivity”. Turning to “QVQLVESGGGLVQAGGSLRLSCAASGRIFTYNAMGGYRQAPGKESEFVAAISSGGSTTYADSVKGRFTISRDNAKNTVYLQMISLKPEDTAVYYCAARGWRFAIIQYEYWGQGTQVTVSS”, the “polyreactivity (PSR sort gate)” value is on record as “low polyreactivity”. Regarding “QVQLVESGGGLVQAGGSLRLSCAASGRIFTYYAMGWYRQAPGKERELVAAISSGGSTYYADSVKGRFTISRDNAKNTVYLQMNSLKPEDTAVYYCAADSIYYFPYDYWGQGTQVTVSS”, the “polyreactivity (PSR sort gate)” value is listed as “high polyreactivity”. In the case of “QVQLVESGGGLVQAGGSLRLSCAASGRIFTYYAMGWYRQAPGKERELVAGISGSGTSTYYADSVKGRFTISRDNAKNTVYLQMNSLKPEDTAVYYCAAIRRQNGLWDYYYWGQGTQVTVSS”, the “polyreactivity (PSR sort gate)” value is “low polyreactivity”. “QVQLVESGGGLVQAGGSLRLSCAASGRIFTYYAMGWYRQAPGKERELVATISSSGSTNYADSVKGRFTISRDNAKNTVYLQMNSLKPEDTAVYYSAKKTRRRYDVKYDYWGQGTQVTVSS”: the “polyreactivity (PSR sort gate)” value is on record as “low polyreactivity”.

For the sequence “QVQLVESGGGLVQAGGSLRLSCAASGRIFTYYAMGWYRQAPGKVRELVAAISSGGSTYYADSVKGRFTISRDNAKTTVYLQMNSLTPEDTAVYYCAAEPSYYPYLSPTYGYWGQGTQVTVSS”, the “polyreactivity (PSR sort gate)” value is on record as “low polyreactivity”. On to “QVQLVESGGGLVQAGGSLRLSCAASGRIFTYYAMVWYRQAPGKERELVAAITGSGTSTYYADSVKGRFTISRDNAMNTVFLLMNSLKPEDTAVYYCAARNSFSRYYYWGQGTQVTVSS”, for which the “polyreactivity (PSR sort gate)” value is on record as “high polyreactivity”. Consider “QVQLVESGGGLVQAGGSLRLSCAASGRIFTYYGMGWYRQAPGKEWELVAAISSSGDSTFYADSVKGRFTISRDNAKNTVYLQMNSLKPEDTAVYYCAADYYYVWYDYWGQGTQVTVSS”, for which the “polyreactivity (PSR sort gate)” value is listed as “low polyreactivity”. For “QVQLVESGGGLVQAGGSLRLSCAASGRIFTYYTKGWSRQAPGKERELVAAITRGGITNYADSVKGRFTISRDNAKNTVYLQMNSLKPEDTAVYYCNAVARVYSEGIRYGYWGQGTQVTVSS”, the “polyreactivity (PSR sort gate)” value was “high polyreactivity”. For “QVQLVESGGGLVQAGGSLRLSCAASGRIFVDNAMGWYRQAPGKERELVAAITRGGSTYADSVKGRFTISRDNAKNTVYLQMNSLKPEDTAVYYCAADLWSVPFTVYTFGIFYYWGQGTQVTVSS”, the “polyreactivity (PSR sort gate)” value is “low polyreactivity”.

Consider “QVQLVESGGGLVQAGGSLRLSCAASGRIFVDNTMGWYRQAPGKERELVAVITSGGSTNYADSVKGRFTISRDNAKNTVYLQMNSLKPEDTAVYYCATEPGGYRFDDRPFQYGYWGQGTQVTVSS”, for which the “polyreactivity (PSR sort gate)” value is given as “low polyreactivity”. Take “QVQLVESGGGLVQAGGSLRLSCAASGRIFVDYAMGWNRQAPGKERELVAAISWSGRTYYADSVKGRFTISRDNAKNTVYLQMNSLKPEDTAVYYCNAAYHYYGKYDYWGQGTQVTVSS”: the “polyreactivity (PSR sort gate)” value is recorded as “high polyreactivity”. For “QVQLVESGGGLVQAGGSLRLSCAASGRIFVDYVMGWYRQAPGKERELVARITWIGGNTYYADSVKGRFTISRDNAKNTVYLQMKSLKPEETAVYYCNAGLTLLSRRHEGWYGYDYWGQGTQVTVSS” the value was “low polyreactivity”; for “QVQLVESGGGLVQAGGSLRLSCAASGRIFVGYALGWYRQAPGKERELVAAINRSGSSTYYADSVKGRFTISRDNAKNTVYLQMNSLKPEDTAVYYCNARSGNRYGPRYDYWGQGTQVTVSS”, “high polyreactivity”. For the sequence “QVQLVESGGGLVQAGGSLRLSCAASGRIFVGYAMGWYRPAPGKERELVAAINRSGSCTYYADSVKVRFTISRDNAKITGYLQMNSLKPEDTAVYYCNARSGNRYGPRYDDWGQGTQVTVSS”, the “polyreactivity (PSR sort gate)” value is recorded as “high polyreactivity”. Consider “QVQLVESGGGLVQAGGSLRLSCAASGRIFVGYAMGWYRQAPGKEREFVAAISRNGGRTYYADSVKGRFTISRDNAKNTVYLQMNSLKPEDTAVYYCATEKYVPSPGGYWGQGTQVTVSS”, for which the “polyreactivity (PSR sort gate)” value was “high polyreactivity”.

Consider “QVQLVESGGGLVQAGGSLRLSCAASGRIFVGYAMGWYRQAPGKERELVAAINRSGSSTYYADSVKGRFTISRDNAKNTVYLQMNSLKPEDTAVYYCNAARRQGNRYTYDYWGQGTQVTVSS”, for which the “polyreactivity (PSR sort gate)” value was “high polyreactivity”.

As for “QVQLVESGGGLVQAGGSLRLSCAASGRIFVGYAMGWYRQAPGKERELVAAINRSGSSTYYADSVKGRFTISRDNAKNTVYLQMNSLKPEDTAVYYCNARSANRYGPRYDYWGQGTQVTVSS”, the “polyreactivity (PSR sort gate)” value is “high polyreactivity”. Consider “QVQLVESGGGLVQAGGSLRLSCAASGRIFVGYAMGWYRQAPGKERELVAVISGRGGSTYYADSVKGRFTISRDNAKNTVYLQMNSLKPEDTAVYYCATDYYGPDYPLDYWGQGTQVTVSS”, for which the “polyreactivity (PSR sort gate)” value was “low polyreactivity”.
